Ends that are not written are not given here. A value given as a limit tells only on which side of the number the result lay.

The target in test [1] is HIV-1 major capsid protein (p24) (HIV-1) (UniProt P04591).
Test [2] shares this target. The source holds these as a separate data set.
For test [3] the target is unchanged. This is another data set of the same source.
The target is the same in test [4]. Put plainly: equilibrium dialysis of 10 µM recombinant protein against 27.5 µM 14C-GPG-NH2, scintillation counting; ratio to the dialysis buffer. In general terms: In equilibrium dialysis free small molecules cross a membrane that holds back macromolecules.
For test [5] the target is unchanged. The source holds these as a separate data set.
Test [6] concerns the target capsid protein of SIV (SIV).
Test [7] has as its target capsid protein of HIV-2 (HIV-2).
In test [8] the target is HIV-1 major capsid protein (p24) (HIV-1) (UniProt P04591). This is another data set of the same source.
In test [9] the target is T1, HIV-1 major capsid protein (p24) (HIV-1, UniProt P04591). Put plainly: cell-based or functional assay.
In test [10] the target is T1, HIV-1 major capsid protein (p24). Put plainly: cell-based or functional assay. This is another data set of the same source.

In [1], Gly-Pro-Gly-NH2 (peptide) came in with a p24 pg/ml in the supernatant of MT-2 cells infected with HIV-1 Bru wild type or the V3 loop GPG-deleted mutants mp8 and mp10, reduction % of 93%. Further, the p24 (pg/ml) in the supernatant of HIV-1 infected HUT78 cells, day 7, reduction (%) in test [2] was 97%. Also, the p24 antigen in the supernatant of HIV-1 infected H9 cells, day 7, reduction (%) in [3] came out at 100%. For the same molecule, in test [4], the times buffer is 7.55 times buffer. In [5], this molecule came in with a Day 10 RT, HIV-1 (OD of reverse transcriptase activity in the supernatant of infected H9 cells); HIV-1 syncytia of 0.074 OD. Further, in test [6], the Day 10 RT, SIV (OD of reverse transcriptase activity in the supernatant of infected H9 cells) stood at 0.103 OD. Moreover, the Day 10 RT, HIV-2 (OD of reverse transcriptase activity in the supernatant of infected H9 cells) in [7] was found to be 0.145 OD. This molecule also showed an HIV-1 p24 (pg/ml) in the supernatant of PBMC infected with AZT- or Ritonavir-resistant HIV-1 isolates, 14 days post infection, 100 µM peptide in test [8] of less than 500 pg/mL. Regarding Gly-Lys-Gly-NH2 (peptide), in [6], the Day 10 RT, SIV (OD of reverse transcriptase activity in the supernatant of infected H9 cells) was 0.099 OD. Further, the Day 10 RT, HIV-2 (OD of reverse transcriptase activity in the supernatant of infected H9 cells) in test [7] is 0.147 OD. Regarding Cys-Gln-Gly-NH2 (peptide), the Day 10 RT, SIV (OD of reverse transcriptase activity in the supernatant of infected H9 cells) in test [6] is 0.11 OD. The molecule further registered a Day 10 RT, HIV-2 (OD of reverse transcriptase activity in the supernatant of infected H9 cells) in [7] of 0.296 OD.

B1: ILK-NH2 (peptide)
peptide: Ile-Leu-Lys-NH2
B1: the “Day 10 RT, HIV-1 (OD of reverse transcriptase activity in the supernatant of infected H9 cells); HIV-1 syncytia” value (shortened to “Day 10 RT … HIV-1 syncytia”) in [9] worked out at 2.95 OD.

B2: GAT-NH2 (peptide)
peptide: Gly-Ala-Thr-NH2
Take B2: the “Day 10 RT … HIV-1 syncytia” value in test [9] stood at 2.8 OD.

B3: Gly-Val-Gly-NH2 (peptide)
peptide: Gly-Val-Gly-NH2
With B3, the “p24 (pg/ml) in the supernatant of HIV-1 infected HUT78 cells, day 7, 100 µM peptide, reduction (%)” value (“p24 (pg/ml) … 100 µM peptide, reduction (%)” below) in test [10] was 25%.

B4: Ser-Leu-Gly-NH2 (peptide)
peptide: Ser-Leu-Gly-NH2
As to B4, the “p24 (pg/ml) … 100 µM peptide, reduction (%)” value in test [10] came to 99%.

B5: KAL-NH2 (peptide)
peptide: Lys-Ala-Leu-NH2
B5: in [9], the “Day 10 RT … HIV-1 syncytia” value is 2.79 OD.

B6: Ala-Ser-Gly-NH2 (peptide)
peptide: Ala-Ser-Gly-NH2
On to B6, for which the “p24 (pg/ml) … 100 µM peptide, reduction (%)” value in test [10] was found to be 25%.

B7: ARV-NH2 (peptide)
peptide: Ala-Arg-Val-NH2
In the case of B7, the “Day 10 RT … HIV-1 syncytia” value in test [9] was found to be 2.83 OD.

B8: HKA-NH2 (peptide)
peptide: His-Lys-Ala-NH2
Consider B8, for which the “Day 10 RT … HIV-1 syncytia” value in [9] is 2.79 OD.

B9: KAR-NH2 (peptide)
peptide: Lys-Ala-Arg-NH2
For the molecule B9, the “Day 10 RT … HIV-1 syncytia” value in test [9] is 2.93 OD.

B10: GPQ-NH2 (peptide)
peptide: Gly-Pro-Gln-NH2
Turning to B10, the “Day 10 RT … HIV-1 syncytia” value in test [9] worked out at 2.85 OD.

B11: GHK-NH2 (peptide)
peptide: Gly-His-Lys-NH2
With B11, the “Day 10 RT … HIV-1 syncytia” value in [9] amounted to 3.01 OD.

B12: ACQ-NH2 (peptide)
peptide: Ala-Cys-Gln-NH2
For the molecule B12, in test [9], the “Day 10 RT … HIV-1 syncytia” value amounted to 2.83 OD.

B13: LKA-NH2 (peptide)
peptide: Leu-Lys-Ala-NH2
In the case of B13, the “Day 10 RT … HIV-1 syncytia” value in test [9] stood at 2.99 OD.

B14: Ala-Leu-Gly-NH2 (peptide)
peptide: Ala-Leu-Gly-NH2
B14: the “p24 (pg/ml) … 100 µM peptide, reduction (%)” value in test [10] came to 100%.

B15: Arg-Gln-Gly-NH2 (peptide)
peptide: Arg-Gln-Gly-NH2
As to B15, in [10], the “p24 (pg/ml) … 100 µM peptide, reduction (%)” value was 99%.

B16: Ser-Pro-Thr-NH2 (peptide)
peptide: Ser-Pro-Thr-NH2
Take B16: the “p24 (pg/ml) … 100 µM peptide, reduction (%)” value in test [10] came out at 25%.

B17: Lys-Gln-Gly-NH2 (peptide)
peptide: Lys-Gln-Gly-NH2
On to B17, for which the “p24 (pg/ml) … 100 µM peptide, reduction (%)” value in test [10] is 99%.

B18: Val-Gly-Gly-NH2 (peptide)
peptide: Val-Gly-Gly-NH2
As for B18, the “p24 (pg/ml) … 100 µM peptide, reduction (%)” value in [10] amounted to 50%.

Values taken from patent US6258932, “Peptides that block viral infectivity and methods of use thereof” (Tripep AB, dated 2001).
